This is an account of results in patent publication US11491212.

Sequences and labels used below:
B1: FIXa-Y155F/I251S/R338E/T343R/R403E (protein)
chain 1: not shown
chain 2: not shown
B2: FIXa-Y155F/R338E/T343R/R403E/E410S (protein)
chain 1: not shown
chain 2: not shown
B3: FIXa-Y155F/R338E/T343R/R403E (protein)
chain 1: not shown
chain 2: not shown
B4: FIXa-R338E/T343R/R403E (protein)
chain 1: not shown
chain 2: not shown
B5: FIXa-Y155F/N260S/R338E/T343R/R403E (protein)
chain 1: not shown
chain 2: not shown

Chain of Factor X, P00742 (P00742 whole entry, looked up): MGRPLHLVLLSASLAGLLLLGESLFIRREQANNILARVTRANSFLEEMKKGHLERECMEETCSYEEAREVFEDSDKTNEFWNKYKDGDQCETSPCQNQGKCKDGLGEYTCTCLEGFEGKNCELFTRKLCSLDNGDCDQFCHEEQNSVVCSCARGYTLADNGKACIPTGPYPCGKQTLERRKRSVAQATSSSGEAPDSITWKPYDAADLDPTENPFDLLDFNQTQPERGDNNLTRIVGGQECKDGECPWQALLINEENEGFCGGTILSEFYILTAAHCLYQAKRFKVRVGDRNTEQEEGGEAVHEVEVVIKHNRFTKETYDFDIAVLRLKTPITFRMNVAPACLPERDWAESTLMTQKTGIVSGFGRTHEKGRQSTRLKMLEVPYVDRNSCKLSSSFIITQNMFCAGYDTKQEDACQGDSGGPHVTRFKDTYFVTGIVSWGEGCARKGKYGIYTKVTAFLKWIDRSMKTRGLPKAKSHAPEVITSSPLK

This series has as its target Factor X, P00742.
For orientation: KM means the substrate concentration at which the rate is half of its maximum. What is called kcat/KM is the second-order rate constant that governs catalysis at low substrate concentration. Regarding B1, the KM was 0.0196 µM and the kcat/KM amounted to 3e+08 M⁻¹ s⁻¹.
In the same order, the values of B2 are 0.0239 µM and 2.9e+08 M⁻¹ s⁻¹.
The corresponding values for B3 are 0.0289 µM and 2e+08 M⁻¹ s⁻¹.
For the protein B4, the Michaelis constant (KM) was determined as 0.0235 µM and the kcat/KM is 3.1e+08 M⁻¹ s⁻¹.
On to B5, for which the KM turned out to be 0.0692 µM and the kcat/KM worked out at 9.4e+07 M⁻¹ s⁻¹.
